According to patent publication US20020091083, “DNA-binding protein YB-1-containing collagen accumulation inhibitors” (Sumitomo Chemical Company, Ltd., published 2002):
Numbering of substitutions follows the chain as printed.

B1: COL1A2 promoter binding probe (dsDNA)
DNA 1: CCCCCCATTCGCTCCCTCCTCTGCGCCCCCGCAGGCTC
DNA 2: GAGCCTGCGGGGGCGCAGAGGAGGGAGCGAATGGGGGG
B2: COL1A2 promoter non-binding probe (dsDNA)
DNA 1: B1 DNA 1 with C5G, C6G
DNA 2: B1 DNA 2 with G33C, G34C

Molecular target: YB-1 (DNA-binding protein) (Homo sapiens, UniProt P67809 SEQ:1-317)
Assay: EMSA; 200 ng protein, 1 ug poly dI-dC, on ice 30 min
Settings: tags: His tag (pET-28a(+), Ni-NTA purified from E. coli BL21-GOLD(DE3)); label: 32P 5' end
Procedure: An oligonucleotide consisting of the nucleotide sequence represented by SEQ ID No:.3 was mixed with an oligonucleotide consisting of the nucleotide sequence complementary with its nucleotide sequence, and this oligonucleotide mixture was boiled for 5 minutes and then allowed to stand at room temperature. Then this oligonucleotide mixture in an amount corresponding to 10 pmol DNA, 2 μl of a T4 kinase buffer, 1 μl of T4 kinase and 6 μl of γ-³²P-ATP(>3000 Ci/mmol, DAIICHI KAGAKU YAKUHIN, Catalog No.NEG-502A) were mixed with distilled water to make the total volume 20 μl, which was then kept at 37° C. for 1 hour. This mixture was loaded onto Quick Spin Column G-25 (Boehringer, Catalog No.1273949). This column was centrifuged (2,500 rpm, 5 minutes), and the effluent was recovered. The effluent thus recovered was subjected to a 10% polyacrylamide gel electrophoresis to recover a gel portion containing a ³²P-labelled double-stranded DNA. the gel portion thus recovered was combined with distilled water, kept at 37° C. over one whole day and night, and extracted to obtain the ³²P-labelled DNA (hereinafter referred to as the binding probe). Thus the binding probe was prepared. […]

YB-1 (DNA-binding protein), sequence (P67809 other isoform, or with tags, fused parts or gaps): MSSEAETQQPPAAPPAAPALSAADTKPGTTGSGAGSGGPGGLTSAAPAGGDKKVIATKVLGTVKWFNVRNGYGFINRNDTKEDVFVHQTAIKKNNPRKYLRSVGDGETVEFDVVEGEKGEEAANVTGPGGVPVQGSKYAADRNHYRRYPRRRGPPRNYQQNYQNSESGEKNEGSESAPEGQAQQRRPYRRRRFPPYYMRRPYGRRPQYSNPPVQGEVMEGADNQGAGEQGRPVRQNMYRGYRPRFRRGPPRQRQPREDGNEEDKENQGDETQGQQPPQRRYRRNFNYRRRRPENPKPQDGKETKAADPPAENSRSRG

Row | Binder | binding result
1 | B1 | binds
2 | B2 | no binding
